# Reference: US20090092614A1 (Biogen, published 2009)
# B1: P1E2 (chimeric antibody) (antibody, V domains shown)
# VH: QVQLQQPGAELVKPGASVKLSCKASGYTFTSYWMHWVKQRPGQGLEWIGEINPTYGRSNYNEKFKSKATLTVDKSSSTAYMQLSSLTSEDSAVYYCARLVRLRYFDVWGAGTTVTVSS
# VL: DIVMTQAAFSNPVTLGTSASISCRSSKSLLHSNGITYLYWYLQKPGQSPQLLIYQMSNLASGVPDRFSSSGSGTDFTLRISRVEAEDVGVYYCAQNLELPYTFGGGTKLEIK
# Experiments:
# human IGF-1R(1-903)-Fc [1] = molecular target: T1, human IGF-1R(1-903)-Fc (human, UniProt P08069 31-933); experiment: blocking ELISA, competitor 640 nM IGF-2
# T1 construct: Made by Biogen Idec; also called hIGF-1R-Fc; IGF-1R-Fc
# human IGF-1R(1-903)-Fc [2] = molecular target: T1, human IGF-1R(1-903)-Fc; experiment: blocking ELISA, competitor 320 nM IGF-1
# hIGF-1R-Fc mutant SD203 = molecular target: T2, hIGF-1R-Fc mutant SD203 (human, UniProt P08069 31-933); experiment: KD grade of mutant hIGF-1R-Fc; S = binding to antibody was ablated by mutation
# T2 construct: build as m36 with the substitution; also called N254A
# hIGF-1R-Fc mutant SD207 = molecular target: T3, hIGF-1R-Fc mutant SD207 (human, UniProt P08069 31-933); experiment: as above
# T3 construct: build as m36 with the substitution; also called G265Y
# T3 sequence (P08069 other isoform, or with tags, fused parts or gaps mutant limits assumed): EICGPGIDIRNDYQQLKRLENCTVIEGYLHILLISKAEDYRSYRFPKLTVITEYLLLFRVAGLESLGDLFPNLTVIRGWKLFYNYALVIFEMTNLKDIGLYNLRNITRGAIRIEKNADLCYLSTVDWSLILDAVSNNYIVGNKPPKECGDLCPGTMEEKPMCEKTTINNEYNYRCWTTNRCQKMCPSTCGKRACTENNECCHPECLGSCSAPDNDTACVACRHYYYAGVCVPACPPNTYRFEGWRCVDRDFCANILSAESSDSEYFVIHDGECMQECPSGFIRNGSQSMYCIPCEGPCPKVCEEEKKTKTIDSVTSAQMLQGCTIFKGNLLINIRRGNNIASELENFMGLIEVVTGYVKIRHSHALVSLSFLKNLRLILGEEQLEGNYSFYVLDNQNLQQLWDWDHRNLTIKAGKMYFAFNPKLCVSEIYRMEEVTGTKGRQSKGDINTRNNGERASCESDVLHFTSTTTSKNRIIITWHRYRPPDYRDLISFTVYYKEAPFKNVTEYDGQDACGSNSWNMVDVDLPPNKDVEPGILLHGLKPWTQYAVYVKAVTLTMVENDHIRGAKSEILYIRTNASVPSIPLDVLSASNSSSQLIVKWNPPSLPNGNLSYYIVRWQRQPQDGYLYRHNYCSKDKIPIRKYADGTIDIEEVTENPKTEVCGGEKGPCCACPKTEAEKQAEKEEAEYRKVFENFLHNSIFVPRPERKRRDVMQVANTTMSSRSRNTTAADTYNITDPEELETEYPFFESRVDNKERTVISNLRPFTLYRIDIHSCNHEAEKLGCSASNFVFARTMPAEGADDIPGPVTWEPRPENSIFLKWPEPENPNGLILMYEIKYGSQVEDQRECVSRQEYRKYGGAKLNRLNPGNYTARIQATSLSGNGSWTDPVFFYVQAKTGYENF
# T1 sequence (P08069 31-933): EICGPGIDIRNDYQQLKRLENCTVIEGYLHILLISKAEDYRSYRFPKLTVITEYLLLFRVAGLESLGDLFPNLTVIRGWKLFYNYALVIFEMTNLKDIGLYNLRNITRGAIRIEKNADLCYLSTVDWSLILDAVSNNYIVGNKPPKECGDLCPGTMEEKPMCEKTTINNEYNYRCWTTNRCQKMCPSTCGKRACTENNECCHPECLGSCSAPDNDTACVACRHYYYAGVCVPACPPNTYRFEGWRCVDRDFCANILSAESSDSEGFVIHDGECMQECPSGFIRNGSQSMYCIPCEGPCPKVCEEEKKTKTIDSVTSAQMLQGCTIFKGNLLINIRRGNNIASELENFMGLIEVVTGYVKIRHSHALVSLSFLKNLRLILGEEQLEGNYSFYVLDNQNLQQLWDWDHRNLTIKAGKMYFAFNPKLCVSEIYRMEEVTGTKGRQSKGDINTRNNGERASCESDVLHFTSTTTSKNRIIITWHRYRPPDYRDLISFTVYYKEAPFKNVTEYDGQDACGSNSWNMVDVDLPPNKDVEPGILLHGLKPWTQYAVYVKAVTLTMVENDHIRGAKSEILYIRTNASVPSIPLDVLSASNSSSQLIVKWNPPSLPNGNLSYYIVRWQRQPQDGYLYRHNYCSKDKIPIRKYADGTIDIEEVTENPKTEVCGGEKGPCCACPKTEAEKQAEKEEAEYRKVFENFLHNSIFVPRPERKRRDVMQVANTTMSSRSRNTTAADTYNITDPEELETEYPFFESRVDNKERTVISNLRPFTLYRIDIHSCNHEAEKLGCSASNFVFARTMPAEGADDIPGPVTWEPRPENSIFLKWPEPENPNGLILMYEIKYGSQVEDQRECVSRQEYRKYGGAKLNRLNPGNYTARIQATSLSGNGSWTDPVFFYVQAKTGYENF
# T2 sequence (P08069 other isoform, or with tags, fused parts or gaps mutant limits assumed): as the sequence (P08069 31-933) above, with N254A counted along it
binder,measurement,setting,value
B1,% IGF-2 inhibition upon antibody saturation,human IGF-1R(1-903)-Fc [1],~50%
same,% IGF-1 inhibition upon antibody saturation,human IGF-1R(1-903)-Fc [2],38%
same,binding result,hIGF-1R-Fc mutant SD203,no binding
same,binding result,hIGF-1R-Fc mutant SD207,no binding
